No end group written: not given here.
Experiments:
Assay in all cases: Kinase Profiling Assay
Assay type in all cases: biochemical
Conditions in all cases: peptide 100 μM
[1] = biological target: CHK2(R145W)(h) (Homo sapiens, UniProt O96017, R145W)
Summary of the method: (§1)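 Specificity of MK2 inhibitory peptides is assessed against a panel of 266 human kinases. Kinase transfers a radiolabeled phosphate from ATP onto a positively charged substrate, which is trapped on a negatively charged filter and quantified by scintillation counting against full-activity control; duplicate determinations.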

[2] = biological target: CK2(h) (Homo sapiens, UniProt P68400)
Summary of the method: as §1

[3] = biological target: EGFR(T790M, L858R)(h) (Homo sapiens, UniProt P00533, L858R/T790M)
Summary of the method: as §1

[4] = biological target: T1, EphA8(h) (Homo sapiens, UniProt P29322)
T1 sequence (P29322 28-1005): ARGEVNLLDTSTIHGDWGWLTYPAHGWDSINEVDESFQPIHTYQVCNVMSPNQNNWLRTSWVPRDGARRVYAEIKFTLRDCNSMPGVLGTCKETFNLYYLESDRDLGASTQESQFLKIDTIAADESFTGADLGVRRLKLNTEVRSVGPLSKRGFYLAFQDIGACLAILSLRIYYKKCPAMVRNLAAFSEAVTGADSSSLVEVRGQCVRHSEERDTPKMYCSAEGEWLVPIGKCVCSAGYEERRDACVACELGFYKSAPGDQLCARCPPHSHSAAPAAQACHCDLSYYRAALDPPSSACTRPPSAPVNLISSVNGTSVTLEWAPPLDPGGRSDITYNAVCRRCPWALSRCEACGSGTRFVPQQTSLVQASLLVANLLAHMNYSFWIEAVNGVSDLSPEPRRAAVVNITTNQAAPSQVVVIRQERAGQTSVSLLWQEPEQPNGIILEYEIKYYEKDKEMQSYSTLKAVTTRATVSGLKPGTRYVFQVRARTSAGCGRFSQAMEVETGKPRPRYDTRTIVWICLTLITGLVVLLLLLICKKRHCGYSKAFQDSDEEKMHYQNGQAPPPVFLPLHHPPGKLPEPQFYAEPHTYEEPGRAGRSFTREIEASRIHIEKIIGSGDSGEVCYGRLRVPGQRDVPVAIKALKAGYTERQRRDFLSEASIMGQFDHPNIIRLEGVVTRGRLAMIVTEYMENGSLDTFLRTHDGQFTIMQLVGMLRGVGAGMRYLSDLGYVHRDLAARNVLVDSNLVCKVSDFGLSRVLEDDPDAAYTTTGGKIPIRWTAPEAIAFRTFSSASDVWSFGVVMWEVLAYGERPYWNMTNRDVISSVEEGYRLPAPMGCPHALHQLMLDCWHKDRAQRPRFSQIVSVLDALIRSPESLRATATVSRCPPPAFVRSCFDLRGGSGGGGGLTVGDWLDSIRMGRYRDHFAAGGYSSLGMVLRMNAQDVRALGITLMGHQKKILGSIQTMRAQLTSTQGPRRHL
Summary of the method: as §1

[5] = biological target: T2, EphB3(h) (Homo sapiens, UniProt P54753)
T2 sequence (P54753 34-998): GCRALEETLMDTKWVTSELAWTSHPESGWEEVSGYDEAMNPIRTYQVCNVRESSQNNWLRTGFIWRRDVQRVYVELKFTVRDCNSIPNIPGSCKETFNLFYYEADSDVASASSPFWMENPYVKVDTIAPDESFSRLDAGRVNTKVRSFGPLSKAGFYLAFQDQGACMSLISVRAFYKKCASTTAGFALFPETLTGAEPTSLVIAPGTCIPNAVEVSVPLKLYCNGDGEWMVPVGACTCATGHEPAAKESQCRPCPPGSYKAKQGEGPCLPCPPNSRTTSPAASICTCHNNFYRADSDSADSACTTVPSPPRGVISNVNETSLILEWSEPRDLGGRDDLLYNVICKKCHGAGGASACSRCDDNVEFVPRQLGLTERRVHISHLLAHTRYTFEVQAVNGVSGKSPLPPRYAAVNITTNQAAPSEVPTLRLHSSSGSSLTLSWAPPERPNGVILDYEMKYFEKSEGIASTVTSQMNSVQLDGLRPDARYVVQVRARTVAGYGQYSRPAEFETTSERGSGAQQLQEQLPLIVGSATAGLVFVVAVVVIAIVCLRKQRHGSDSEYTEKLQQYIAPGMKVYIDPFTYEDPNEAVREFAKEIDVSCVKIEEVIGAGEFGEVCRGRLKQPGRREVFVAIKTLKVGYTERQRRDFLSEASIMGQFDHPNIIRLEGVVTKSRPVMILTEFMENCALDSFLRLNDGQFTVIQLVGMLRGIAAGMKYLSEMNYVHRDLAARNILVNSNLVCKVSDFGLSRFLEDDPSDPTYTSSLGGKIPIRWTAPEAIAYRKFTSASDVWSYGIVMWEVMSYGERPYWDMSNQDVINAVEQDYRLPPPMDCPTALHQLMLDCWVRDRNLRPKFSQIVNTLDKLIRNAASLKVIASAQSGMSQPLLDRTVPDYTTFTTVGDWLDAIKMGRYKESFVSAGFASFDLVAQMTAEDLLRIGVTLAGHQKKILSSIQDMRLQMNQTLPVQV
Summary of the method: as §1

[6] = biological target: PDGFRα(h) (Homo sapiens, UniProt P16234)
Summary of the method: as §1

[7] = biological target: DAPK1(h) (Homo sapiens, UniProt P53355)
Summary of the method: as §1

CK2(h), sequence (P68400 whole entry): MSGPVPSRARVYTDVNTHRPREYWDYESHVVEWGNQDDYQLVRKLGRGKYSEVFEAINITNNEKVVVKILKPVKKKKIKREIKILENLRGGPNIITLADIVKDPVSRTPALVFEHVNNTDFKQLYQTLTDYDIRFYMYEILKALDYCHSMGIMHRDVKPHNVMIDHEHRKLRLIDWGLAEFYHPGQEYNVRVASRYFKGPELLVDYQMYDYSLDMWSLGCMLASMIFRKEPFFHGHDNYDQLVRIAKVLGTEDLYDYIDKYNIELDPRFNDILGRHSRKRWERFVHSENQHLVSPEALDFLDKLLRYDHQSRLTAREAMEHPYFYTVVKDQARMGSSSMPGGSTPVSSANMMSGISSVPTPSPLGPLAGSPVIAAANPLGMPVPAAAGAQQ
CK2(h), sequence (P67870 whole entry partner): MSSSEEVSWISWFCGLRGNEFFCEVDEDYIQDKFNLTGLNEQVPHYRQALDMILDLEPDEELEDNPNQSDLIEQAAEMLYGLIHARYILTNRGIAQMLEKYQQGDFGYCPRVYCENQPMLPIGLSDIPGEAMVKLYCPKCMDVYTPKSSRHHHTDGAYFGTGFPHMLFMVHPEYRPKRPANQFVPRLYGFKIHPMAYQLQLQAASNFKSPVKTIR
PDGFRα(h), sequence (P16234 24-1089): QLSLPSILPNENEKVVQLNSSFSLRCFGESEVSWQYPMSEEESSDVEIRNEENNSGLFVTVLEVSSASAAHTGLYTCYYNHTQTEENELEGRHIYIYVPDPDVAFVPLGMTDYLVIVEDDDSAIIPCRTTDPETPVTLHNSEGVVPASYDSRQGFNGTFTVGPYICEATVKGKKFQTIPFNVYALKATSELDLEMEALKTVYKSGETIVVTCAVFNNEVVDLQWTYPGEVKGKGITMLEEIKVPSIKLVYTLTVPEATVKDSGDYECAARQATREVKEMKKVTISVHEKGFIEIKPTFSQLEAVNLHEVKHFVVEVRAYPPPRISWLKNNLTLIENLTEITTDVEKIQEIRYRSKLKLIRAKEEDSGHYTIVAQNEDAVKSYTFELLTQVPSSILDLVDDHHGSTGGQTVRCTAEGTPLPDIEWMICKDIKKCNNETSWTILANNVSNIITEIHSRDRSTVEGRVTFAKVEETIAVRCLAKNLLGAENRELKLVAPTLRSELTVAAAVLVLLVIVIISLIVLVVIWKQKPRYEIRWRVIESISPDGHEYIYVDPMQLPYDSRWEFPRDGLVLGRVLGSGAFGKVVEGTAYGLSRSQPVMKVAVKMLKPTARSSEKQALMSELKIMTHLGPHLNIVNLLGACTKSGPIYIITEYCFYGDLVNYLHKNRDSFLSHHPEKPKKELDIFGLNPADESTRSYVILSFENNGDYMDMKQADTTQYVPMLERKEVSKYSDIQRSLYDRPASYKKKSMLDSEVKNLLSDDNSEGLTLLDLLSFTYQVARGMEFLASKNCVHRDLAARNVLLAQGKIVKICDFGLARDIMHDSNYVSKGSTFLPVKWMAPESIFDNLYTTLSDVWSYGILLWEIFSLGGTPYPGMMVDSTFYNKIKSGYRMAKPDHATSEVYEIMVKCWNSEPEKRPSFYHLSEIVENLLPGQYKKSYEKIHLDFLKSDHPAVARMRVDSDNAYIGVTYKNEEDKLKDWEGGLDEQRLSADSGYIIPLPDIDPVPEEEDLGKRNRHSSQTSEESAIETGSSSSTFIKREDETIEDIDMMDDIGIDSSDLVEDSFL
DAPK1(h), sequence (P53355 whole entry): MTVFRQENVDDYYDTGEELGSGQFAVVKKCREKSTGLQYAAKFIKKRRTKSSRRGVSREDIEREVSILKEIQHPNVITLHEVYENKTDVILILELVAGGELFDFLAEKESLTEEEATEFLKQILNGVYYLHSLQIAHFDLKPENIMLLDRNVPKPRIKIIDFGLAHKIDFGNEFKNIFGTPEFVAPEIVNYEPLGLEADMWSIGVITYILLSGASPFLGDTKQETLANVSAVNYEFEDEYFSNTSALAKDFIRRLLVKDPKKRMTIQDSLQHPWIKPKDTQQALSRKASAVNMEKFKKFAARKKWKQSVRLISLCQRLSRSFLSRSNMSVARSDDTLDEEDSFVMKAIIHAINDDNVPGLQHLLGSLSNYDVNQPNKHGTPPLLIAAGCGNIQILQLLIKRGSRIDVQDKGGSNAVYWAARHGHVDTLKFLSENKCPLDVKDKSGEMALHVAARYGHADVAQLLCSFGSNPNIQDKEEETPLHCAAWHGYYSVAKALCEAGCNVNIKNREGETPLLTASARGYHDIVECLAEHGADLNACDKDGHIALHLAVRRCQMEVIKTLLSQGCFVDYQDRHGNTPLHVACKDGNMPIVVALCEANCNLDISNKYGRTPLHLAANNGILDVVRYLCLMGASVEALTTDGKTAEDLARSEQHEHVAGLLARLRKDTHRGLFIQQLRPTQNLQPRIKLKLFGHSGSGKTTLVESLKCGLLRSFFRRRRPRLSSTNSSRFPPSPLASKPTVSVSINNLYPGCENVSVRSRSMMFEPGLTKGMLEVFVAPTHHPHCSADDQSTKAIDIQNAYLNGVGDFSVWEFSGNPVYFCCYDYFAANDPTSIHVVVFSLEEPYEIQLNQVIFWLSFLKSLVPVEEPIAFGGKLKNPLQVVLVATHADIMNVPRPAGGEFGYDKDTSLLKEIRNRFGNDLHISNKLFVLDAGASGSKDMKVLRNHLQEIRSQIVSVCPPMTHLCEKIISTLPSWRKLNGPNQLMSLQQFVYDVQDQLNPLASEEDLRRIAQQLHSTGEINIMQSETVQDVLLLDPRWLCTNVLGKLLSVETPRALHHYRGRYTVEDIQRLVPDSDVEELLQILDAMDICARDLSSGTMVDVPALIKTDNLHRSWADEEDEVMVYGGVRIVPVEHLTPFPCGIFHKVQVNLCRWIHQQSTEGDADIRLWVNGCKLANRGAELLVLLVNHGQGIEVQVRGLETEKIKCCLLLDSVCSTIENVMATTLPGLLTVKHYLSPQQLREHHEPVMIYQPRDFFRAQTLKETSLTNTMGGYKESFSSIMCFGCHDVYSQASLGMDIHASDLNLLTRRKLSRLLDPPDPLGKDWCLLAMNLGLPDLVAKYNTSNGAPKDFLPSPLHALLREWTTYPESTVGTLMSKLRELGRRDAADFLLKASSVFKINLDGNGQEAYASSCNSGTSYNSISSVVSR
CHK2(R145W)(h), sequence (O96017 whole entry R145W): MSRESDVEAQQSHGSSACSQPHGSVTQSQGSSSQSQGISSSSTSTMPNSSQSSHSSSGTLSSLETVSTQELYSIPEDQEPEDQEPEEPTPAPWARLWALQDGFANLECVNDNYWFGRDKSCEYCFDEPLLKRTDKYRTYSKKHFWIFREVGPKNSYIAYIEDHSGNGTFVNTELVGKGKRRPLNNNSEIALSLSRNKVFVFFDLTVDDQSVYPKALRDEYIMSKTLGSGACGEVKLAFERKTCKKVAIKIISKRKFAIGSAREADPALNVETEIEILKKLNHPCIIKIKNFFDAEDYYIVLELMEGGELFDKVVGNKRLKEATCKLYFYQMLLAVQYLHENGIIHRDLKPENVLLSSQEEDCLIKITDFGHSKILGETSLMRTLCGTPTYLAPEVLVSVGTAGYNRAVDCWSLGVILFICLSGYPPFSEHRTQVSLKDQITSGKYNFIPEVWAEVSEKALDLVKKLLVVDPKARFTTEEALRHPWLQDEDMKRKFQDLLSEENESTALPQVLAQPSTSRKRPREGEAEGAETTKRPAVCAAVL

| Sequence | % activity [1] | % activity [2] | % activity [3] | % activity [4] | % activity [5] | % activity [6] | % activity [7] |
| --- | --- | --- | --- | --- | --- | --- | --- |
| YARAAARQARAKALNRQLGVA (Mammal) [MMI-0200] | 81% | 83% | 108% | 133% | 128% | 108% | – |
| YARAAARQARAKALARQLGVAA [MMI-0100] | 97% | – | – | 181% | – | – | 97% |
| HRRIKAWLKKIKALARQLGVAA (Mammal) [MMI-0500] | 3% | 93% | 53% | 337% | 79% | 40% | 0% |
| KAFAKLAARLYRKALARQLGVAA [MMI-0400] | 31% | 101% | 78% | 146% | 47% | 40% | 36% |
| FAKLAARLYRKALARQLGVAA [MMI-0300] | 33% | 90% | 85% | 93% | 62% | 65% | 46% |
